The values that follow come from a protein production outcome set (Wang et al. 2014).

This data set is described as follows: label from the status in PepcDB records.
Take “MIKLLKKINIKSIIELVKKDFKLKLISLSVGIVMWFLVIGGVNPVVTRQFTDVPVSFKNQSVLESRKLIRVSPENPTVTVTITGKRSDVYSVNKSDIVAEVNLQNGITSGAHRLSINYKVPYNVQFKSASDNDLLVTLDEEISKTYKVEVETIGQIKNKNQVVAKKEPADSEVVVKGPVSYVNKVKRVRCVVDVTNKDGDEVVQSKIVPVDELNKEVKKVSLSKTDTNVSIGFKNFKEVPIKLVEINSPPSDVRILKKDIVPNIISIVGNLTSLEQISQINTKPFDLSQIKESGSYNLNLELPSDVTLVNNDLKVVINIDVDKKIEKTLEIDTSNIEIENESGKDILLKGLQDKVKVTVRGYESDLAKLNAEDIRLYISVKKEDVGKNVQIKAKNIENIEIAKISNDIVQAIGK”: the protein production entry was “failed”. As to “MFITLSERFGLLLAGGFAIMTLAPLDKLGPGRTRSWRATALLVVLFSLFTILGTYNGNIVFQSFANLRAMGAVTAGLFGGPMVGALTGLIAGGHRYFIDVGGFSAVPCGLATFLEGLAAGLFAWRFPSRSLDWGTAMTFAAVGEAVHMCLVLGLARPYAQAVDLVEVIGLPMILLNGVGAAIFVQALRMQMHFRDLRDSSQARQILSIANRTLPHLRAGLSAASARATAEIILDETRVAAVALTSNDMVMAHVGAASDHHRAGHSVCTQATRRVATDGIPLFVTGHDEIGCQLEACPLCSAIIVPLRKGDTILGCLKLYGTKDRPLDQTLFELAKGLADLFATQIELEDIGIKNQLLARAEIRRLQAQINPHFLFNSLNTVASFCRTAPGQARELILDLARYMRRNLDTSREAIHLAEEVEQIRAYLVIEKARFGERIRAVIDIDPETEHCLVPPLLIQPLVENSVRHGILGNEEGGVVRLATSMEDGHVVVVVEDDGAGMPESTRQGILNGTPVTAHGEGIGASNCNQRLVQLYGPAYALSIDSAPGMGTRITFRVPASTDAEVFASAAA”, the protein production result was “failed”. As for “MMQHCAPTPRLARFLFVEYRMMRQYELVERVQKYKPDANEALLNKAYVYAMQKHGQQKRANGDPYISHPLEVAAILTEMHLDESTIAVALLHDTIEDTTATRAEIDELFGEDIGRLVEGLTKLKKLDLVTRKAKQAENLRKLLLAISDDVRVLLVKLADRLHNMRTMEYMPADKRSRISEETMEIYAPLAGRMGMQDMRDELEDLSFRYLNPEAYETVTNRLLELETRNEGLIKKIEDELRELLVANGLLGTHVKGRQKKPYSVFRKMQSKSLSFEQLSDVYGFRILVDDIPGCYRALGIVHTRWRVVPGRFKDYISTPKQNDYRSIHTTIVGPSRQRIELQIRTKRMHEIAEFGIAAHALYKDGENGEGDLLSKESNAYSWLRHTIESLAEGDSPEEFLEHTKLELFQDQVFCFTPKGKLIALPRGATPIDFAYAVHTNIGDTTVGAKINGRIMPLVTRLNNGDEVEIIRSGVQVPPAAWEEVVVTGKARSAIRRATRMAIRKQYSGLGYRILERTFERAGKAFSREALKPVLHRLAQKDVEDAIAAVGRGEVSSLDVLRAVFPDYQDERVTVKMTGDDGWFNMRSASGMVFKIPGKSRSVLEDDGAAEMLDGPDPLPIRGLSGNVDVHFSAAGAVPGDRIVGIMEKGKGITIYPIQAPALQRFDDEPERWIDVRWDLDEANKSRFMARVMINALNEPGTLASVAQSIATLDVNIRGLNMVRIGTDFSELALDVEVWDLRQLNQLLSQLKDLDCVSTVARAFD”, the entry is “failed”; as for “MNTLFFSRQQYWLALIFGCLLVFLAASLGHGQWLDYAQRVATLDEPLSRLRWIVGDISEVAFYKHELPALGLLLGACLAHWAQLRGYRWQGFAICYGSGLWPWVFTSSLLGLLLSHVLWGWTLASGTWQPTFVAFVSLPAAMVLLFGAGWRVTITGALLGALLVTPAGLLMVNYLCYPLQLPVVVGNVSGMAVASVVAFILCKRFPSWVRQCGEPTVVAPVVNQPDYGVVWTLRRVLADFSEAPFFGNELASLGLLLGVLLAYLLSPAALSYGSMLVMQMVAGQALASLVGVVLWRGQWKARGWYPTYIPIVSIVPAAVLTHGGSWQVVVASAVLGALVAPPLAVAITQRLPAYVHGYIGNVVSMAICTLGIVPVVGLLVGGEA”, “failed”.

On to “MRRSFYHYLMTLKGPAKDSETDFANEAAKDIQFPKQTEDYHELSSYLEMNADYLSNMDIFDELWEKYLENNKLEHHHHHH”, for which the protein production result is on record as “not failed”. The entry for “MLPLTLIAILSLGIVEGLDPYKGLLFSYYFYSFRKVKESYVVPIVSTITYYIVGILIVEWLNISDNILTRGIMFSLLLVHVLIKLVIGKVLHYPSNMRPKILNVIQWSAINSIIQMNFIILLTLSILSKPSLILLPITVIIVRETTYCLSVKNNKILLKLTEYNFDYFYLITVLLLGIVIILPLL” is “failed”.

Take “MLIKLTGGTVYDPANGIDGQVRNLFIRDGRIVHSLNGATPDQEYDLRGKVVMAGAIDMHTHIGGGKVT”: the protein production entry is on record as “failed”.

Turning to “MIAFQALQAISPIDGRYRNKVEVLSRYFSEGSLIRYRVKVEVEYFIALCNELPSLKDVCPPSLEEELRRIYQDFSEKDAVRVKEIEAVTNHDVKAVEYFLKERFEAMGIRDAKEFIHFGLTSQDVNNTAFPMMIREAMTEVYLPALQELVEQLHAYALQWKDVPMLAKTHGQPASPTRLGKEIEVFVYRLRKQIDLLLEVPHSAKFGGATGNFNAHHVAYPDHDWSDFGRRFVTSLGLEREELTTQISNYDNMAALFDACCRINVILIDLCRDFWQYISMEYFKQKIKAGEVGSSAMPHKVNPIDYENAEGNLGIANAIFEHLSRKLPISRLQRDLTDSTVLRNVGTPLAHSLIAVTSIAKGLGKLLLNEAALDRDLQNNYAVVAEAIQTILRREGYPNPYETLKALTRTNETVTAESIASFIEALDIDETVKEEMRRISPSNYVGI”, the protein production entry was “failed”. Turning to “MTRRLVLMLALLSGSAGASGSFFTLLQTWQGLGHAPIAVSPDGRLLALTRPAPRTPAYAPYDTRIEVRDTAKMRRLYRVPAANGDGKTLLFSPDSRTLWSAHSGTLHYDAWTGKLADNREGSDGAGVSALAFAPGGQSYVLAGVNAVGQTRLVRVGVSPLRSFWPVTRPTAGDGMQPNWTSALAFSPDGRWVASGSVGGGVILRSSVTGRPLRVLADEPGQAPHRARLVDLLFLSPARLLSASADGQVRLWDAATGRALASLPCGERLGAVVQLPGGTRVVAATSRGLQLIETSGGRLRRLETVGGDYADVGVSAAGELWAITRGGTLSHWRLLSR”, the protein production entry was “failed”.

For the sequence “MAAVVAATALKSRGARNARVLRGILAGATANKVSHNRTRALQSHSSSEGKEEPEPLSPELEYIPRKRGKNPMKAVGLAWYSLYTRTWLGYLFYRQQLRRARNRYPKGHSKTQPRLFNGVKVLPIPVLSDNYSYLIIDTQAQLAVAVDPSDPRAVQASIEKEGVTLVAILCTHKHWDHSGGNRDLSRRHRDCRVYGSPQDGIPYLTHPLCHQDVVSVGRLQIRALATPGHTQGHLVYLLDGEPYKGPSCLFSGDLLFLSGCGRTFEGNAETMLSSLDTVLGLGDDTLLWPGHEYAEENLGFAGVVEPENLARERKMQWVQRQRLERKGTCPSTLGEERSYNPFLRTHCLALQEALGPGPGPTGDDDYSRAQLLEELRRLKDMHKSK”, the protein production entry was “failed”. The entry for “MCIGMDIRDFFAQSAGRWFSQRTSHHLAFKQTESGKSQLTIELLSVDDPAVIALCQQYDMDPAWAVCGARVSWDGTMEWDNEKHEGSTVLVPIMDQGSRMEGKLLREMGYAEKAPVAGRFSMGSDGALTLITEYETIYSEERLWFASPNLRLRTSILKRFGGFSMASFCSEIRLGVTQPANSLEHHHHHH” is “not failed”; for “MEQLSDSDHRDSADATTSSCQSTTAEDGQCGGGGEAMARGLSAMLESVIKDFDSKALDTLNSQDELSGSLDRLVQDYAQINPIDPIKFLNHYIAIGLTKLLKN” it is “failed”; for “MGIFGWRTASLLKKAWQLYQQQHWSKAQQCARQVIEQTPQPEAYYLLGLIAEQLARPLEARTAYEQAIALDPWHAPSHYRLAVVLHALLQQPAAAVPHYQRALEVKPDWVEAHSNLGNAYLDLGDTEGAIACYQKALSLNPDLPTTLYNLGLCLHAQGKLTEATACYEQSLYLEPGQADVHNNLGSAYLELKNYTAATVHFQAALGANPELLVAHYNLGYALHLQGNLAAARDRYQEVLLRDNKHLRTLLQLGQICLAEEDLTGAIGYYQRCLSLDPLNSAAQAGLATALLESGDPQAALPYLRQAVALNPEAEDVRLKFALVLLMLEQFREGWQEYEWRWQQPTGGLRNYPQPRWQGQSLKGKTLFVYSEQGFRDCIQFVRLLPLMAKHAQRIIFEAYPPLVRLCQTLPGIEVMSTEETPPPFDYHTPLLSLPRYLGIDQDHFPKFKPYFPLPTRPPHPLFKVSKPRVGLVWASHSQTRTTVQRSCPLEYFLPLLQEFDVQWYSLQKERSPTEAEQLRQVGVIDCQPYMGDFLDTALLIQQLDAVVTIDTAVAHLAGALGKPLWILLPFVADWRWFWRRSRSPWYPSAELIRQPQRGDWPGAIAQLRSALQAHYRTRCNGIPN” it is “failed”. As for “LAAMSIDLGSQFIKIGLVKPGVPMDIVLNKESRRKTPNVISFKNDERFFAEAAAAMSSSHPQSSYNFLLSMIARKEGDDAFVTFQKTFPFTAFEFDEVRKTVVFPYKEEKYNVETLLAMILWNAKKVTEAYADQTVKDVVITVPIFLNQAERRAIASAAEIAGLNLLQLLNDGSAAALNYGVFRRKEITEKPTHMLIYDMGAVKTTATIVQYVLESTRKDGKDKQPTLRTVGVGFDKTLGGLEITNRLRDHLEKVFRDTVKTSKDISTNARAIGKLHKEAERVKQVLSANKDTYAQVESLFEEQNFRAKVTREELEKMIEDLEPRIAAPILDAIGMAQISTNDIDLVVLMGAGTRVPKVKEILKTILKDKEISNFLNTDEAIAMGAVYQAAHLSKSFKVLPFNVHEKILYPVFVNFLTKTEEGTMKPIRKSLFGENYPVPNRVMHFSSYSDDFKIDIQDADKNPLSTVEISGVKDAIEKEVTDE”, the protein production entry is reported as “failed”. As for “MENKPDYFHHIEHRKFQSSSKITLWLSLVITMIFTVVEFVGGIVSNSLALLSDSFHMLSDVLALGLSMVAIYFSSKPPTKNYTYGFLRLEIIVAFLNGLALIVISLGIMYEGIMRIIHPRPVESGIMILIAFIGLIANIVLTIILMISLKKENNINIQSALWHFIGDLLNSLGIIVAFVLIHFTGWNIVDPIISILISLIILRGGYKIIKNASKVLMERVPDRYDTDEIMGAMKDVEGVIDIHEFHLWSVTTNQSSLSAHVVLSDDYIKSPYATINKVSDLLKTQYGLEHVTLQIENINLNHLDEEYFKQLQE”, the entry is “failed”; as for “MKEKGGDSLKYCYQCGLCDSVCPWNRVRQFSMRKIVRQGTFGLTEIEQEDIWRCSTCGTCPSRCPRGVNQIEAGVAMRRIGAEYDVLEHHHHHH”, “failed”; as for “MSVQLVKGVNLHVIPTEKYKTVRLLVRFNTRLNHETITKRTLLSSLMETNSLNYPNQVKLSERLAELYGASFGIGVSKKGNQHWFNISMNIVNDHYLQDSQVLAEAVDFLKEIIFAPNIQAGQFEAETFQREKENLKAYLESIVEDKQTYASLALQSVYFNQSEDQKIPSFGTVAALAEETAASLAAYYQKMLAEDQVDIFVLGDVNEAELVPLFKQLPFTPREEGKAAIFYNQPIRNVIEERTEREVLAQSKLNLAYNTDIYYGDSYYFALQVFNGIFGGFPHSKLFMNVREKEHLAYYASSSIDTFRGFMTVQTGIDGKNRNQVLRLISTELENIRLGKIRELEIEQTKAMLKNQYILALDNAGAWLEKEYLNELMPQTMLTAEEWIARINAVTIPEIQEVAKRLELQAIFFLEGETEND”, “not failed”. The entry for “MRRRVAAALVAAVLAAPALAQQPEPFEPEGYRTDNYRAPVPATLAGARVLTTAEAEAIWRDKSGAFIDVMPRAPKPKNLPEGTVWRDAPRRNIPGSLWLPDTGYGNLPPAMDDYLQRGLAQASRGDKAALLVIYCLADCWMSWNAARRALAYGYSNIAWYPDGSDGWERAALPTDEGQPEPRPDQ” is “failed”.
